Laboratory results from publication doi:10.1101/2021.07.05.451159.

Assays:
GST = experiment: SEC
[1] = target: Gp22 (ALY06965.1), receptor-binding protein of C. difficile phage CDHS-1 (Clostridium difficile phage CDHS-1); experiment: SEC

Row | Substance | stoichiometry N (GST) | stoichiometry N [1]
1 | GST (natural protein) | 2 | –
2 | Gp22 (ALY06965.1), receptor-binding protein of C. difficile phage CDHS-1 (natural protein) | – | 2
